# Laboratory results taken from patent US20140220031A1 (Biogen, published 2014).
# Numbering of substitutions follows the chain as printed. Names may count otherwise.
# B1: 5c8 Fab Mutant #14 (light chain S26D/Q27E) (Fab, V domains shown)
# VH: QVQLVQSGAEVVKPGASVKLSCKASGYIFTSYYMYWVKQAPGQGLEWIGEINPSNGDTNFNEKFKSKATLTVDKSASTAYMELSSLRSEDTAVYYCTRSDGRNDMDSWGQGTLVTVSS
# VL: DIVLTQSPATLSVSPGERATISCRADERVSSSTYSYMHWYQQKPGQPPKLLIKYASNLESGVPARFSGSGSGTDFTLTISSVEPEDFATYYCQHSWEIPPTFGGGTKLEIK
# notes: Fab fragment; also called double mutant
# B2: 5c8 Fab Mutant #1 (heavy chain T30H) (Fab, V domains shown)
# VH: B1 VH with T30H
# VL: B1 VL with D26S, E27Q
# notes: Fab fragment
# B3: 5c8 Fab Mutant #25 (heavy chain T30H/Y33W; light chain S26D/Q27E/T33W) (Fab, V domains shown)
# VH: B1 VH with T30H, Y33W
# VL: B1 VL with T33W
# notes: Fab fragment; also called combination 5 point mutation (assigned)
# B4: 5c8 Fab Mutant #5 (light chain T33W) (Fab, V domains shown)
# VH: B1 VH
# VL: B1 VL with D26S, E27Q, T33W
# notes: Fab fragment
# B5: 5c8 Fab Mutant #10 (light chain Y54E) (Fab, V domains shown)
# VH: B1 VH
# VL: B1 VL with D26S, E27Q, Y54E
# B6: 5c8 Fab Mutant #17 (heavy chain Y33W; light chain S26D/Q27E/T33W) (Fab, V domains shown)
# VH: B1 VH with Y33W
# VL: B1 VL with T33W
# notes: Fab fragment
# B7: 5c8 Fab Mutant #16 (heavy chain T30H; light chain S26D/Q27E) (Fab, V domains shown)
# VH: B1 VH with T30H
# VL: B1 VL
# notes: Fab fragment
# B8: 5c8 Fab Mutant #11 (heavy chain Y33F) (Fab, V domains shown)
# VH: B1 VH with Y33F
# VL: B1 VL with D26S, E27Q
# B9: 5c8 Fab Mutant #24 (heavy chain T30H/Y33W; light chain S26D/Q27E) (Fab, V domains shown)
# VH: B1 VH with T30H, Y33W
# VL: B1 VL
# notes: Fab fragment
# B10: 5c8 Fab Mutant #12 (heavy chain N59D) (Fab, V domains shown)
# VH: B1 VH with N59D
# VL: B1 VL with D26S, E27Q
# notes: also called Asn59Asp
# B11: 5c8 Fab Mutant #6 (light chain S26D) (Fab, V domains shown)
# VH: B1 VH
# VL: B1 VL with E27Q
# notes: Fab fragment
# B12: 5c8 Fab Mutant #23 (heavy chain Y33W; light chain S26D/Q27E) (Fab, V domains shown)
# VH: B1 VH with Y33W
# VL: B1 VL
# notes: Fab fragment
# B13: 5c8 Fab Mutant #7 (light chain Q27E) (Fab, V domains shown)
# VH: B1 VH
# VL: B1 VL with D26S
# notes: Fab fragment
# B14: 5c8 Fab Mutant #9 (light chain T33D) (Fab, V domains shown)
# VH: B1 VH
# VL: B1 VL with D26S, E27Q, T33D
# B15: 5c8 Fab Mutant #18 (heavy chain T30H; light chain S26D/Q27E/T33W) (Fab, V domains shown)
# VH: B1 VH with T30H
# VL: B1 VL with T33W
# notes: Fab fragment
# B16: 5c8 Fab Mutant #13 (heavy chain N59L) (Fab, V domains shown)
# VH: B1 VH with N59L
# VL: B1 VL with D26S, E27Q
# notes: also called Asn59Leu
# B17: 5c8 Fab Mutant #15 (light chain S26D/Q27E/T33W) (Fab, V domains shown)
# VH: B1 VH
# VL: B1 VL with T33W
# notes: Fab fragment
# B18: 5c8 Fab Mutant #4 (heavy chain S54N) (Fab, V domains shown)
# VH: B1 VH with S54N
# VL: B1 VL with D26S, E27Q
# notes: Fab fragment
# B19: 5c8 Fab Mutant #2 (heavy chain Y33W) (Fab, V domains shown)
# VH: B1 VH with Y33W
# VL: B1 VL with D26S, E27Q
# notes: Fab fragment
# B20: 5c8 Fab Mutant #8 (light chain S31V) (Fab, V domains shown)
# VH: B1 VH
# VL: B1 VL with D26S, E27Q, S31V
# Molecular target: T1, CD154 (human, UniProt P29965 113-261, limits assumed)
# T1 construct: also called CD40 ligand; CD40L
# T1 sequence (looked up): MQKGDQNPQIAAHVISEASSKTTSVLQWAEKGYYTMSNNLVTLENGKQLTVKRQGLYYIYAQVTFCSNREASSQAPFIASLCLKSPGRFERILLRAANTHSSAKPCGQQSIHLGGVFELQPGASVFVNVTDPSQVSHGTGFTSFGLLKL
# Experiment: assay not named in the sentence (mutants characterized by competitive ELISA)
row,Binder,fold higher affinity compared to the wildtype 5c8 Fab
1,B1,9 fold over wildtype

# Molecular target: T1, CD154
# Experiment: ELISA-based competitive binding assay; unlabeled Fab against biotin-labeled 5c8 Fab competitor
row,Binder,ELISA fold-improvement over wildtype
1,B2,2.3 fold over wildtype
2,B3,5.6 fold over wildtype
3,B4,5 fold over wildtype
4,B5,0.06 fold over wildtype
5,B6,5.9 fold over wildtype
6,B7,5.8 fold over wildtype
7,B8,0.05 fold over wildtype
8,B9,8 fold over wildtype
9,B10,0.13 fold over wildtype
10,B1,5.6 fold over wildtype
11,B11,2.6 fold over wildtype
12,B12,5.2 fold over wildtype
13,B13,6.3 fold over wildtype
14,B14,0.22 fold over wildtype
15,B15,5.4 fold over wildtype
16,B16,0.01 fold over wildtype
17,B17,3.8 fold over wildtype
18,B18,2 fold over wildtype
19,B19,7 fold over wildtype
20,B20,0.02 fold over wildtype

# Molecular target: T1, CD154
# Experiment: assay not given
row,Binder,fold higher affinity compared to the wild type
1,B3,25 fold over wild type
